B1: LINE1-mini (parent)
chain: GGCAGAGCUCAACACAGCGUGGCAAAGUGGCUGUGGCUAGACUGCC

In the series the parent is B1. Nature of the series: self-cleavage, relative activity (ratio to wild type); higher = more cleavage; in vitro, sequencing; the parent is a self-cleaving ribozyme.
Turning to C3U U34G, the self-cleavage was 0.07.
For the variant C3U U34C, the self-cleavage amounted to 0.07.
With C3U U34A the figure was 0.06; with C3U U20G, 0.28.
For C3U U20A, the self-cleavage was 0.28.
For C3U U20C the value was 0.15; for A4C A24C, 0.09.
With A4C A24G the figure was 0.14; with A4C A24U, 0.17.
As for C3U G30C, the self-cleavage amounted to 0.44.
Turning to C3U G30A, the self-cleavage was 0.75.
Take C3U G30U: the self-cleavage amounted to 0.5.
In the case of C3U G44U, the self-cleavage came to 0.23.
In the case of C3U G44C, the self-cleavage is 0.35.
In the case of C3U G44A, the self-cleavage turned out to be 1.07.
For C3U G5U, the self-cleavage is 0.2.
Take C3U G5C: the self-cleavage came to 0.27.
On to C3U G5A, for which the self-cleavage worked out at 0.21.
As to C3U G7U, the self-cleavage is 0.11.
Consider C3U G7C, for which the self-cleavage is 0.17.
C3U G7A: the self-cleavage is 0.26.
C3U C10G: the self-cleavage was 0.03.
With C3U C10U the figure was 0.15; with C3U C10A, 0.05; with A4C C10A, 0.04.
Regarding C3U C37G, the self-cleavage worked out at 0.05.
As to C3U C37U, the self-cleavage stood at 0.14.
Consider C3U C37A, for which the self-cleavage was 0.12.
Turning to C3U G22U, the self-cleavage came out at 0.82.
With C3U G22C the figure was 0.48; with C3U G22A, 0.34; with A4C, 0.19.
Take C3G U43C: the self-cleavage is 0.14.
Take C3G U43G: the self-cleavage was 0.21.
For C3U C45A the value was 0.2; for C3U C45U, 0.32; for C3U C45G, 0.12.
With C3U A25C the figure was 0.52; with C3U A25G, 0.27; with C3U A25U, 0.52.
Take A4C A26U: the self-cleavage is 0.11.
With A4C A26G, the self-cleavage stood at 0.15.
Regarding A4C A26C, the self-cleavage worked out at 0.1.
Regarding C3U A26G, the self-cleavage amounted to 0.34.
C3U A26U: the self-cleavage worked out at 0.67.
In the case of C3U A26C, the self-cleavage turned out to be 0.35.
As for C3U A41U, the self-cleavage amounted to 0.56.
As to C3U A41G, the self-cleavage amounted to 0.12.
With C3U A41C the figure was 0.09; with C3U A16U, 0.09; with C3U A16G, 0.16.
With C3U A16C the figure was 0.09; with C3U, 0.48; with C3U C8G, 0.15.
Regarding C3U C8U, the self-cleavage is 0.71.
Regarding C3U C8A, the self-cleavage was determined as 0.38.
In the case of C3U A4C, the self-cleavage is 0.26.
Take C3U A4U: the self-cleavage came to 0.15.
Regarding C3U A4G, the self-cleavage was found to be 0.31.
On to C3U G19U, for which the self-cleavage is 0.32.
Regarding C3U G19C, the self-cleavage came out at 0.25.
With C3U G19A the figure was 0.83; with C3U G33C, 0.07; with C3U G33A, 0.13.
For C3U G33U the value was 0.1; for C3U C31U, 0.1; for C3U C31A, 0.07.
For C3U C31G the value was 0.04; for C3U U38A, 0.19; for C3U U38C, 0.19.
Regarding C3U U38G, the self-cleavage was 0.04.
For the variant C3U A14U, the self-cleavage was 0.19.
In the case of C3U A14G, the self-cleavage worked out at 0.34.
Regarding C3U A14C, the self-cleavage is 0.08.
Regarding C3U C15A, the self-cleavage was 0.08.
With C3U C15U the figure was 0.32; with C3U C15G, 0.08.
For the variant C3U C46G, the self-cleavage was 0.37.
For C3U C46A the value was 0.18; for C3U C46U, 0.21.
With A4C A39G the figure was 0.9; with A4C A39U, 0.09; with A4C A39C, 0.07.
With C3U U32A, the self-cleavage was 0.07.
As to C3U U32C, the self-cleavage was found to be 0.19.
Turning to C3U U32G, the self-cleavage was found to be 0.09.
In the case of A4C A41C, the self-cleavage stood at 0.12.
As for A4C A41G, the self-cleavage came out at 0.07.
With A4C A41U the figure was 0.23; with C3U A24C, 0.37.
For C3U A24U, the self-cleavage was determined as 0.73.
With C3U A24G the figure was 0.24; with C3U G40A, 0.12; with C3U G40U, 0.12.
Turning to C3U G40C, the self-cleavage came to 0.07.
Take C3U G21A: the self-cleavage is 1.19.
Consider C3U G21C, for which the self-cleavage turned out to be 0.47.
For the variant C3U G21U, the self-cleavage was found to be 0.41.
On to C3U C42U, for which the self-cleavage amounted to 0.14.
As to C3U C42A, the self-cleavage turned out to be 0.09.
On to C3U C42G, for which the self-cleavage is 0.07.
For the variant C3U U43G, the self-cleavage came out at 0.2.
Consider C3U U43C, for which the self-cleavage amounted to 0.09.
On to C3U U43A, for which the self-cleavage is 0.14.
In the case of C3U G35U, the self-cleavage is 0.18.
With C3U G35A, the self-cleavage amounted to 0.22.
On to C3U G35C, for which the self-cleavage came to 0.11.
With C3U G17A, the self-cleavage turned out to be 0.1.
With C3U G17C the figure was 0.18; with C3U G17U, 0.12; with A4C A12U, 0.17.
As to A4C A12G, the self-cleavage came out at 0.06.
A4C A12C: the self-cleavage came out at 0.03.
Consider C3U A12C, for which the self-cleavage was 0.06.
With C3U A12G the figure was 0.06.
As to C3U A12U, the self-cleavage stood at 0.35.
For C3U A39C the value was 0.19.
With C3U A39U the figure was 0.38; with C3U A39G, 0.2; with A4C A11U, 0.04.
Take A4C A11C: the self-cleavage stood at 0.04.
As to A4C A11G, the self-cleavage was determined as 0.04.
Take C3U C13G: the self-cleavage was determined as 0.14.
Regarding C3U C13U, the self-cleavage was 0.23.
C3U C13A: the self-cleavage was 0.15.
On to C3U C18U, for which the self-cleavage is 0.42.
For C3U C18G, the self-cleavage worked out at 0.09.
With C3U C18A the figure was 0.23.
With C3U U9A, the self-cleavage is 0.29.
With C3U U9G the figure was 0.15.
As to C3U U9C, the self-cleavage is 0.07.
With C3U G27U, the self-cleavage turned out to be 0.41.
Regarding C3U G27A, the self-cleavage came out at 0.36.
For the variant C3U G27C, the self-cleavage is 0.2.
With A4C A16U the figure was 0.05; with A4C A16G, 0.09; with A4C A16C, 0.04.
In the case of C3U A11G, the self-cleavage was determined as 0.03.
C3U A11C: the self-cleavage was 0.06.
Regarding C3U A11U, the self-cleavage turned out to be 0.08.
For C3U G36U the value was 0.22.
C3U G36A: the self-cleavage came to 0.34.
Consider C3U G36C, for which the self-cleavage was 0.19.
Consider C3U A6C, for which the self-cleavage came to 0.5.
For C3U A6U, the self-cleavage amounted to 0.38.
C3U A6G: the self-cleavage came to 0.09.
Consider C3U U28G, for which the self-cleavage amounted to 0.23.
As to C3U U28A, the self-cleavage is 0.4.
For C3U U28C, the self-cleavage is 0.24.
On to A4C A25U, for which the self-cleavage came out at 0.13.
For A4C A25G the value was 0.12; for A4C A25C, 0.06.
On to C3U G29A, for which the self-cleavage was 0.26.
For C3U G29U the value was 0.34; for C3U G29C, 0.37.
For A4C A14G the value was 0.1.
For A4C A14U, the self-cleavage was 0.22.
With A4C A14C the figure was 0.1.
On to C3U C23U, for which the self-cleavage came to 0.38.
On to C3U C23A, for which the self-cleavage came out at 0.55.
For the variant C3U C23G, the self-cleavage was 0.46.
Consider A4C C8G, for which the self-cleavage worked out at 0.07.
For the variant A4C C8U, the self-cleavage worked out at 0.22.
As for A4C C8A, the self-cleavage stood at 0.32.
For A4C A6G the value was 0.37; for A4C A6C, 0.09; for A4C A6U, 0.11.

The values are drawn from the RNAGym collection of RNA variant scans (doi:10.7554/elife.90254).
